From paper PMC5974088 (2018)
Where no end group is shown, it is not given here. Me2 = dimethyl-lysine

Tests used:
Assay in all cases: ITC
53BP1 Tudor Y1502A = 53BP1 Tudor Y1502A (H. sapiens, UniProt Q12888 1484-1603, Y1502A)
53BP1 Tudor W1495A = 53BP1 Tudor W1495A (H. sapiens, UniProt Q12888 1484-1603, W1495A)
53BP1 Tudor Y1523A = 53BP1 Tudor Y1523A (H. sapiens, UniProt Q12888 1484-1603, Y1523A)
53BP1 Tudor Y1523S = 53BP1 Tudor Y1523S (H. sapiens, UniProt Q12888 1484-1603, Y1523S)
53BP1 Tudor D1521A = 53BP1 Tudor D1521A (H. sapiens, UniProt Q12888 1484-1603, D1521A)
Chain of 53BP1 Tudor D1521A (Q12888 other isoform, or with tags, fused parts or gaps D1521A | D1521A): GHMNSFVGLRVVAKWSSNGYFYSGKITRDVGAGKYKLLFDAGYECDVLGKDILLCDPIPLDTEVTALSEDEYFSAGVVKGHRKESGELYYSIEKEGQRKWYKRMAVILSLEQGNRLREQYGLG

53BP1 Tudor Y1500A = 53BP1 Tudor Y1500A (H. sapiens, UniProt Q12888 1484-1603, Y1500A)
Chain of 53BP1 Tudor Y1500A (Q12888 other isoform, or with tags, fused parts or gaps Y1500A | Y1500A): as the sequence (Q12888 other isoform, or with tags, fused parts or gaps D1521A | D1521A) above, with Y20A, A41D counted along it

[1] = target: T1, 53BP1 tandem Tudor domain (1484-1603) (H. sapiens, UniProt Q12888 1484-1603)
T1 chain: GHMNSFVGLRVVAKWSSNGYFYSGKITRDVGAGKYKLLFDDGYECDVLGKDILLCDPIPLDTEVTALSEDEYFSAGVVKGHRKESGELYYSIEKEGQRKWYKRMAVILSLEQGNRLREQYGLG

Chain of 53BP1 Tudor Y1502A (Q12888 other isoform, or with tags, fused parts or gaps Y1502A | Y1502A): as the sequence (Q12888 other isoform, or with tags, fused parts or gaps D1521A | D1521A) above, with Y22A, A41D counted along it
Chain of 53BP1 Tudor W1495A (Q12888 other isoform, or with tags, fused parts or gaps W1495A | W1495A): as the sequence (Q12888 other isoform, or with tags, fused parts or gaps D1521A | D1521A) above, with W15A, A41D counted along it

Kd (53BP1 Tudor Y1502A): 151 µM
Kd (53BP1 Tudor W1495A): > 1500 µM
Kd (53BP1 Tudor Y1523A): 7.8 µM
Kd (53BP1 Tudor Y1523S): 65.8 µM
Kd (53BP1 Tudor D1521A): > 1500 µM
Kd (53BP1 Tudor Y1500A): 163 µM
Kd [1]: 19.7 µM
B1: H4K20me2 (peptide)
chain: KRHRK(Me2)VLRDN
